Data on 1 molecule can be found in patent US6500431B1, “Inhibitors of angiogenesis and tumor growth” (University of Southern California, priority 1998, dated 2002).

In one series the test system is KS Y-1 tumor. The experiment in a line: Established KS tumors in mice. Type of series: in vivo. As to the method: FIG. 5: Effect of two daily doses of Saposin B on growth of an established KS Y-1 tumor. The arrow marks initiation of daily subcutaneous dosing.
In further experiments, KS tumors were allowed to grow for five days before treatment with Saposin B (1 and 5 mg/kg daily at a distal site from the timor). In control mice, tumors grew to a weight of 555±mg. […] Tumors excised at the conclusion of the experiments were also examined for apoptosis, blood vesel density, andmitotic index. […] Thus, contrary to the results in vitro, Saposin B has an inhibitory effect against non-KS tumors.

A further series deals with KS Y-1 cells. Briefly: KS cell migration assay, fibronectin-coated transwell. The note with it: chemotaxis induced by VEGF or bFGF. The class given is cell-based. Here is the method:
The assays were done in double chamber wells separated by […] membrane. Chemotaxis was induced by bFGF (25 ng/mL) in the lower chamber. Endothelial cells or KS cells (5×10^4/mL) were placed in the upper chamber in the presence and absence of test polypeptides. Taxol at 10 ng/mL was used as a known inhibitor of migration. Cell migration across the membrane was quantitated after an overnight incubation.
Angiogenesis is mediated by complex biochemical processes including degradation of the basement membrane under existing blood vessel endothelial cells, followed by proliferation and migration of endothelial cells, followed by formation of capillary loops, and recruitment of vascular smooth muscle cells to encase the newly formed vessels and provide stability. KS and endothelial cell migration in the presence of Saposin B was studied in transwell culture plates with 8 μm pore membranes (Costar, Cambridge, Mass.).
Briefly, wells were coated with fibronectin (25 μg/mL) overnight, and endothelial cells or KS cells were plated in the upper chamber with 100 μL of DMEM/0.4% FCS. 500 μL of DMEM/0.4% FCS was added to the lower chamber and incubated at 37° C. for one hour. The test polypeptides, at various concentrations, were added to the upper chamber, and chemotactic agents (VEGF or bFGF at 20 ng/mL) were added to the lower cell-culture chambers. The plates were incubated for 5 hr at 37° C. and the cells crossing the fibronectin-coated membrane were counted after wiping the cells off the membrane in the upper chamber with a cotton swab.
The cells that traversed the membrane were fixed with Diff-Quik stain according to the manufacturer's instruction (Dade Diagnostics Inc., Aguada, PR). The cells were counted under a microscope at 320× in four randomly selected fields. The experiments were done in duplicate and repeated at least three times.

The test system of series [1] is Human bone marrow cells and peripheral blood mononuclear cells. The experiment in a line: Stem cell clonogenic assays in methylcellulose. Type of series: cell-based. As to the method:
Human bone marrow cells and peripheral blood mononuclear cells were harvested from a subject after the administration of high doses of cyclophosphamide and G-CSF. Stem cell clonogenic assays in methylcellulose were performed with IL-3, erythropoietin, and VEGF (10 ng/mL, and 100 ng/mL). VEGF was used to determine if there are progenitor cells with self replication capacity but without adherence to extracellular matrix such as fibronectin. It was also desirable to determine if Saposin B was toxic to endothelial cell specific progenitors for hematopoietic (myeloid or erythroid) lineage cells.
These colonies contained mixture of cells indicating more than one cell lineage generated in response to VEGF. The colonies also contained spindle shaped cells which mark the presence of VEGF receptors.

The test system of the next series is KS-SLK or KS Y-1 cells. The experiment in a line: KS-SLK or KS Y-1 tumors in nude mice. The class given is in vivo. The note with it: daily subcutaneous 1, 10 and 20 mg/kg after one week of tumor development. As to the method: In order to determine the anti-angiogenic activity of the recombinant Saposin B, tumor cells were implanted in immuno-deficient mice and treated with either Saposin B or buffer alone.
Nude mice were injected with 2×10^6 KS-SLK or KS Y-1 cells subcutaneously in a total volume of 100 μL. After one week of tumor development, the mice were injected subcutaneously daily with either PBS or Saposin B at concentrations of 1, 10 and 20 mg/kg for a total protein concentration of […]. The tumor size was measured three times a week. The results represent the median of 4 mice in each group.

B1: Saposin B: polypeptide fragment of Prosaposin (positions 190 to 269), SEQ ID NO:2; recombinantly expressed (protein)
chain: GDVCQDCIQMVTDIQTAVRTNSTFVQALVEHVKEECDRLGPGMADICKNYISQYSEIAIQMMMHMQPKEICALVGFCDEVK
For B1, in the series with KS Y-1 tumor (1 and 5 mg/kg daily), the “apoptosis in excised tumors” value is recorded as “increase in apoptosis” and the “blood vessel density in excised tumors” value was “decrease in blood vessel density”. For the same molecule, the “weights of excised tumors relative to controls” value in the series on KS Y-1 tumor (treatment from day five, 1 and 5 mg/kg daily at a distal site) is recorded as “approximately 23%”. Moreover, in the series on KS Y-1 cells, the “inhibition of KS cell migration” value was “compete inhibition of cell migration”. In addition, the “cytotoxic effect on colonies developed with IL-3 or erythropoietin” value in series [1] is listed as “no cytotoxic effect”. In addition, the “effect on colonies generated with VEGF” value in series [1] (VEGF 10 ng/mL and 100 ng/mL) is given as “loss of spindle shaped cells”. Besides, the tumor growth result in the series with KS-SLK or KS Y-1 cells was “markedly retarded”.
